This assay has as its target GST (glutathione S-transferase) released from the GST-P fusion protein (S. japonicum). The experiment in a line: SEC.

The term stoichiometry N denotes a count of units in the complex or per binding partner. Consider “GST (glutathione S-transferase) released from the GST-P fusion protein (natural protein)”, for which the stoichiometry N stood at 2.

These data come from paper PMC12409746.
